Laboratory results reported in patent US12365904B2, “Thrombin binding circular aptamer and use thereof” (Hefei University of Technology, priority 2019, dated 2025).
Numbering of substitutions follows the chain as printed.

B1: D1: Deletion variant of TBCA, SEQ ID NO:8 (nucleic acid)
DNA: ATCTCGACTAGTCATAGGGGGCGCGAACATACGCGGTTGGTGTGGTTGGCTGACAATACTCGTGTCTCGGAT
modifications: DNA, backbone and methylation of C not given here; further chemistry not fully specified
B2: TBCA: Circular DNA aptamer, SEQ ID NO:1, 5′ end and 3′ end connected to form a ring (nucleic acid)
DNA: ATCTCGACTAGTCATAGGGGGCGCGAACATACGCGGTTGGTGTGGTTGGCTGACAATACTCGTTTTTGGTGTCTCGGAT
modifications: DNA, backbone and methylation of C not given here; circular: 5' and 3' ends joined to form a ring
B3: M2: Substitution variant of TBCA, SEQ ID NO:4, N is a random nucleotide (nucleic acid)
DNA: B2 DNA with C8N, T9N, A10N, G11N, T12N, C13N, A14N
modifications: DNA, backbone, methylation of C and the base at N not given here; circular: 5' and 3' ends joined to form a ring
B4: M1: Substitution variant of TBCA, SEQ ID NO:3, N is a random nucleotide (nucleic acid)
DNA: B2 DNA with A1N, T2N, C3N, T4N, C5N, G6N, A7N
modifications: DNA, backbone, methylation of C and the base at N not given here; circular: 5' and 3' ends joined to form a ring
B5: M4: Substitution variant of TBCA, SEQ ID NO:6, N is a random nucleotide (nucleic acid)
DNA: B2 DNA with T64N, T65N, T66N, T67N, G68N, G69N, T70N
modifications: DNA, backbone, methylation of C and the base at N not given here; circular: 5' and 3' ends joined to form a ring
B6: M3: Substitution variant of TBCA, SEQ ID NO:5, N is a random nucleotide (nucleic acid)
DNA: B2 DNA with T57N, A58N, C59N, T60N, C61N, G62N, T63N
modifications: DNA, backbone, methylation of C and the base at N not given here; circular: 5' and 3' ends joined to form a ring
B7: M5: Substitution variant of TBCA, SEQ ID NO:7, N is a random nucleotide (nucleic acid)
DNA: B2 DNA with G71N, T72N, C73N, T74N, C75N, G76N, G77N, A78N, T79N
modifications: DNA, backbone, methylation of C and the base at N not given here; circular: 5' and 3' ends joined to form a ring
B8: D2: Deletion variant of TBCA, SEQ ID NO:9 (nucleic acid)
DNA: ATCTCGACTAGTCATAGGGGGCGCGAACATACGCGGTTGGTGTGGTTGGCTGACAATACTCGT
modifications: DNA, backbone and methylation of C not given here; further chemistry not fully specified

Columns and labels:
thrombin = thrombin (Homo sapiens, UniProt P00734); assay: Inhibition of thrombin-catalyzed conversion of fibrinogen to fibrin, absorbance at 350 nm; assay type: biochemical; conditions: for IC50: thrombin concentration of 0.1 nM, fibrinogen 2 μM
Method: (§1) Thrombin (0.1 nM) and fibrinogen (2 μM) were incubated with TBCA and Lib of different concentrations separately in buffer systems (total reaction volume of 100 μL) for a certain amount of time (till reaction equilibrium was reached), and the IC50 values of TBCA and Lib were calculated by fitting of the absorbance of the reaction system measured at 350 nm on a microplate reader.
The inhibition of thrombin-catalyzed conversion of fibrinogen to fibrin by TBCA and the random circular nucleic acid (Lib) was compared.
as §1, with “TBCA, M1, M2, M3, M4, M5, D1, D2” for “TBCA”, “D3” for “Lib”

[1] = Incubation in 50% serum at 37° C., electrophoresis, gray values of bands (biostability, half-life); assay type: in vitro ADME; conditions: 0.5 μM
Method: Incubation of 0.5 μM of TBCA and TBA each (nucleotide sequences thereof are shown in SEQ ID NO:1 and SEQ ID NO:2, respectively) was performed in 50% serum at a temperature of 37° C. Samples were taken for electrophoresis at 0 min, 1 min, 2 min, 5 min, 10 min, 30 min, 60 min (1 h), 120 min (2 h), 240 min (4 h), 480 min (8 h), 720 min (12 h) and 1440 min (24 h), respectively.

Row | Molecule | IC50 (thrombin) [nM] | also measured
1 | D3: Deletion variant of TBCA, SEQ ID NO:10 (DNA ATCTCGACTAGTCATAGGGGGCGCGAACATACGCGGTTGGTGTGGTTGGCTGACAA; DNA, backbone and methylation of C not given here; further chemistry not fully specified) | 0.13 | –
2 | TBA: Existing thrombin binding aptamer, 5′-GGTTGGTGTGGTTGG-3′, specifically targets α-thrombin [reference compound] | 1.3 | half-life [1]: approximately 2 min
3 | B1 | 0.15 | –
4 | B2 | 0.15 | half-life [1]: about 8 hours; half-life ([1]; listed as thrombin binding circular aptamer): up to 8 hours; inhibition effect on thrombin relative to Argatroban (thrombin; thrombin 0.1 nM, ratio of IC50 values, TBCA vs Argatroban): 30 times; inhibition effect on thrombin relative to TBA (thrombin; thrombin 0.1 nM, ratio of IC50 values, TBCA vs TBA): 13 times
5 | B3 | 0.36 | –
6 | B4 | 0.37 | –
7 | B5 | 0.1 | –
8 | B6 | 0.18 | –
9 | B7 | 0.11 | –
10 | B8 | 0.09 | –
